From patent US6465254, “Mutant loxP site and applications thereof” (Sumitomo Pharmaceuticals Company, Limited) come the findings set out here.

B1: mutant loxP #2372 (dsDNA)
DNA 1: ATAACTTCGTATAAGGTATCCTATACGAAGTTAT
DNA 2: B1 DNA 1 with A14G, G16A, T19C, C21T
B2: mutant loxP #2271 (dsDNA)
DNA 1: B1 DNA 1 with G15A, C20A
DNA 2: ATAACTTCGTATAGTATACTTTATACGAAGTTAT
B3: mutant loxP #4172 (dsDNA)
DNA 1: B1 DNA 1 with G15T, T17C
DNA 2: B2 DNA 2 with T15G, A18G, T20A
B4: mutant loxP #5171 (dsDNA)
DNA 1: B1 DNA 1 with G15T, A18G, C20A
DNA 2: B2 DNA 2 with T17C, T20A
B5: mutant loxP #6171 (dsDNA)
DNA 1: B1 DNA 1 with G15T, T19C, C20A
DNA 2: B2 DNA 2 with A16G, T20A
B6: mutant loxP #4171 (dsDNA)
DNA 1: B1 DNA 1 with G15T, T17C, C20A
DNA 2: B2 DNA 2 with A18G, T20A
B7: mutant loxP #42 (dsDNA)
DNA 1: B1 DNA 1 with G15T, T17A, C20G
DNA 2: B2 DNA 2 with T15C, A18T, T20A
B8: mutant loxP #31 (dsDNA)
DNA 1: B1 DNA 1 with G15T, G16A, C20G
DNA 2: B2 DNA 2 with T15C, C19T, T20A
B9: mutant loxP #43 (dsDNA)
DNA 1: B1 DNA 1 with G15T, T17G, C20G
DNA 2: B2 DNA 2 with T15C, A18C, T20A
B10: mutant loxP #81 (dsDNA)
DNA 1: B1 DNA 1 with G15T, C20G, C21T
DNA 2: B2 DNA 2 with G14A, T15C, T20A
B11: mutant loxP #72 (dsDNA)
DNA 1: B1 DNA 1 with G15T
DNA 2: B2 DNA 2 with T15G, T20A
B12: mutant loxP #73 (dsDNA)
DNA 1: B1 DNA 1 with G15T, C20T
DNA 2: B2 DNA 2 with T15A, T20A

Residue numbers refer to the chain shown, from its start.

T1 sequence (P06956 whole entry, one chain of several): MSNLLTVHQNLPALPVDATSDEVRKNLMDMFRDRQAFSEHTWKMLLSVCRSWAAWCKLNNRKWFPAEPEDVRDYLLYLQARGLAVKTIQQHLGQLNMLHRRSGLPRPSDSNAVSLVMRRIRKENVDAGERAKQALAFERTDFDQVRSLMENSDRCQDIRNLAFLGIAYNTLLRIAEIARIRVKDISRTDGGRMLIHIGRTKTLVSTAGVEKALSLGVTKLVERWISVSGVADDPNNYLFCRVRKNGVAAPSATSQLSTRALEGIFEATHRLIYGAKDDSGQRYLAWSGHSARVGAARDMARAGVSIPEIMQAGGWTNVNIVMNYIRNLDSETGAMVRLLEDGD

One series has as its target T1, Cre recombinase (UniProt P06956 P06956:1-343). The experiment in a line: self x self; intermediate 2. The settings on record: tags: expressed from recombinant adenovirus AxCANCre in 293 cells.
As for B1, the activity stood at 0 grade 0-9 final product. Still for that read-out and setting: with B2 the figure was 6 grade 0-9 final product. On the same count and under the same terms, with B3 the figure was 4 grade 0-9 final product.

The next series addresses T1, Cre recombinase. The series is described as follows: self x self; intermediate 0. The settings on record: tags: expressed from recombinant adenovirus AxCANCre in 293 cells.
As for B4, the activity is 6 grade 0-9 final product. The same measure, in the same setting: next, B5: 6 grade 0-9 final product; B6: 4 grade 0-9 final product.

Another series concerns the target T1, Cre recombinase. The series is described as follows: self x self; intermediate 5. The settings on record: tags: expressed from recombinant adenovirus AxCANCre in 293 cells. As for the experimental part:
(§1) Substrate DNA (1 μg) prepared in (3) and cell extract containing Cre (10 μl) prepared in (1) were incubated at 37° C. for 30 min in a 50 μl volume of buffer containing 50 mM Tris-HCl (pH 7.5)/10 mM MgCl2/1 mg/ml bovine serum albumin/1 mM phenylmethylsulfonyl fluoride (PMSF)/5 μg/ml aprotinin. After completion of the reaction, 45 μl of TE buffer (pH 8.0) and 5 μl of EDTA solution (pH 8.0) were added to the reaction mixture, extracted with phenol/chloroform and with chloroform, followed ethanol precipitation. The recovered DNA was dissolveld in 30 μl of TE buffer (pH 8.0) containing RNase A (20 μg/ml). Half volume thereof was digested with restriction enzyme BsaHI. The DNA bands detected by ethidium bromide (EtBr) staining after agarose gel electrophoresis, were analyzed.
(§2) Before recombination mediated by Cre, restriction enzyme BsaHI digestion of linear substrate DNA (approx. 4.1 kb) generates four bands of 2.7 kb, 610 bp, 380 bp and 360 bp. On the other hand, as a result of recombination of substrate DNA mediated by Cre, a circular DNA of approx. 4.0 kb containing one mutant loxP, and a linear DNA of approx. 50 bp consisting of only mutant loxP, are produced. Digestion of these DNA with restriction enzyme BsaHI generates four bands of 2.7 kb, 920 bp, 380 bp and 50 bp (refer to FIG. 6).
Regarding B7, the activity stood at 6 grade 0-9 final product. Same read-out and setting: next, B8: 7 grade 0-9 final product. Same read-out and setting: with B9 the figure was 6 grade 0-9 final product.

The next series has as its target T1, Cre recombinase. The series is described as follows: self x self; intermediate 3. The settings on record: tags: expressed from recombinant adenovirus AxCANCre in 293 cells. As for the experimental part:
as §1, §2
B10: the activity is 3 grade 0-9 final product.

In the case of B11, the activity came out at 7 grade 0-9 final product.

For B12, the activity is 1 grade 0-9 final product.
